# Data from IntAct's records for PubMed 28065597.
# B1: Receptor tyrosine-protein kinase erbB-4 (Homo sapiens), Q15303 (parent)
# chain: MKPATGLWVWVSLLVAAGTVQPSDSQSVCAGTENKLSSLSDLEQQYRALRKYYENCEVVMGNLEITSIEHNRDLSFLRSVREVTGYVLVALNQFRYLPLENLRIIRGTKLYEDRYALAIFLNYRKDGNFGLQELGLKNLTEILNGGVYVDQNKFLCYADTIHWQDIVRNPWPSNLTLVSTNGSSGCGRCHKSCTGRCWGPTENHCQTLTRTVCAEQCDGRCYGPYVSDCCHRECAGGCSGPKDTDCFACMNFNDSGACVTQCPQTFVYNPTTFQLEHNFNAKYTYGAFCVKKCPHNFVVDSSSCVRACPSSKMEVEENGIKMCKPCTDICPKACDGIGTGSLMSAQTVDSSNIDKFINCTKINGNLIFLVTGIHGDPYNAIEAIDPEKLNVFRTVREITGFLNIQSWPPNMTDFSVFSNLVTIGGRVLYSGLSLLILKQQGITSLQFQSLKEISAGNIYITDNSNLCYYHTINWTTLFSTINQRIVIRDNRKAENCTAEGMVCNHLCSSDGCWGPGPDQCLSCRRFSRGRICIESCNLYDGEFREFENGSICVECDPQCEKMEDGLLTCHGPGPDNCTKCSHFKDGPNCVEKCPDGLQGANSFIFKYADPDRECHPCHPNCTQGCNGPTSHDCIYYPWTGHSTLPQHARTPLIAAGVIGGLFILVIVGLTFAVYVRRKSIKKKRALRRFLETELVEPLTPSGTAPNQAQLRILKETELKRVKVLGSGAFGTVYKGIWVPEGETVKIPVAIKILNETTGPKANVEFMDEALIMASMDHPHLVRLLGVCLSPTIQLVTQLMPHGCLLEYVHEHKDNIGSQLLLNWCVQIAKGMMYLEERRLVHRDLAARNVLVKSPNHVKITDFGLARLLEGDEKEYNADGGKMPIKWMALECIHYRKFTHQSDVWSYGVTIWELMTFGGKPYDGIPTREIPDLLEKGERLPQPPICTIDVYMVMVKCWMIDADSRPKFKELAAEFSRMARDPQRYLVIQGDDRMKLPSPNDSKFFQNLLDEEDLEDMMDAEEYLVPQAFNIPPPIYTSRARIDSNRSEIGHSPPPAYTPMSGNQFVYRDGGFAAEQGVSVPYRAPTSTIPEAPVAQGATAEIFDDSCCNGTLRKPVAPHVQEDSSTQRYSADPTVFAPERSPRGELDEEGYMTPMRDKPKQEYLNPVEENPFVSRRKNGDLQALDNPEYHNASNGPPKAEDEYVNEPLYLNTFANTLGKAEYLKNNILSMPEKAKKAFDNPDYWNHSLPPRSTLQHPDYLQEYSTKYFYKQNGRIRPIVAENPEYLSEFSLKPGTVLPPPPYRHRNTVV
# B2: Receptor tyrosine-protein kinase erbB-4 (Homo sapiens), Q15303 (parent)
# chain: B1 chain
# partner: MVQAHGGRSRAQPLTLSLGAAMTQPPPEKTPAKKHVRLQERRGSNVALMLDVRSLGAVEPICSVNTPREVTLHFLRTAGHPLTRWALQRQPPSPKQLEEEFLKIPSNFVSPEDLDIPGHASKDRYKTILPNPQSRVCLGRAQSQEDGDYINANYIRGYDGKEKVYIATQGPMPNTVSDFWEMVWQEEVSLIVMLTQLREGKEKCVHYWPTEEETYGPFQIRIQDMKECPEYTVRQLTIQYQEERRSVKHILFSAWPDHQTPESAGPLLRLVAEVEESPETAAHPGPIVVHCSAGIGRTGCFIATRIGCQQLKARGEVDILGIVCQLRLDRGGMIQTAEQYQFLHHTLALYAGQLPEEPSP
# B3: Receptor tyrosine-protein kinase erbB-4 (Homo sapiens), Q15303 (parent)
# chain: B1 chain
# partner: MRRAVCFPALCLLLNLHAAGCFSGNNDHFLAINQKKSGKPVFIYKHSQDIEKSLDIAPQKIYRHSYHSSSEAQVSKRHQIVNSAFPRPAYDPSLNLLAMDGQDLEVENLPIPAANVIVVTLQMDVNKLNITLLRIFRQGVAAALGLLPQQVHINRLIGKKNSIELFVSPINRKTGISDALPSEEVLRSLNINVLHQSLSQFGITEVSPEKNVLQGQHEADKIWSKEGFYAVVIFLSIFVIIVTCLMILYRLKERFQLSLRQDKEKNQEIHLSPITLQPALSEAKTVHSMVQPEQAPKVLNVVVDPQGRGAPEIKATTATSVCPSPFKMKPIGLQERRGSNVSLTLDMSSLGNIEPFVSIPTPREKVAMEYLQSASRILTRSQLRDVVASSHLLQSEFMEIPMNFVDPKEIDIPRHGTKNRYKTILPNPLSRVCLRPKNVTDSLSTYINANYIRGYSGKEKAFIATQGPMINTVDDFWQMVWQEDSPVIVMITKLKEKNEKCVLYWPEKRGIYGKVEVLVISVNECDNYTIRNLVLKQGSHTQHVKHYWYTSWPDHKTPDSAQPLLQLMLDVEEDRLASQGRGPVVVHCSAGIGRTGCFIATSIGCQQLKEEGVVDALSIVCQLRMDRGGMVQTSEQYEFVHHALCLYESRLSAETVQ
# B4: Receptor-type tyrosine-protein phosphatase R (Homo sapiens), Q15256 (parent)
# chain: B3 partner
# Variants of: B1
# Conditions: with ptn6_human PTPN6, P29350
# ptn6_human PTPN6, P29350, sequence (P29350 whole entry): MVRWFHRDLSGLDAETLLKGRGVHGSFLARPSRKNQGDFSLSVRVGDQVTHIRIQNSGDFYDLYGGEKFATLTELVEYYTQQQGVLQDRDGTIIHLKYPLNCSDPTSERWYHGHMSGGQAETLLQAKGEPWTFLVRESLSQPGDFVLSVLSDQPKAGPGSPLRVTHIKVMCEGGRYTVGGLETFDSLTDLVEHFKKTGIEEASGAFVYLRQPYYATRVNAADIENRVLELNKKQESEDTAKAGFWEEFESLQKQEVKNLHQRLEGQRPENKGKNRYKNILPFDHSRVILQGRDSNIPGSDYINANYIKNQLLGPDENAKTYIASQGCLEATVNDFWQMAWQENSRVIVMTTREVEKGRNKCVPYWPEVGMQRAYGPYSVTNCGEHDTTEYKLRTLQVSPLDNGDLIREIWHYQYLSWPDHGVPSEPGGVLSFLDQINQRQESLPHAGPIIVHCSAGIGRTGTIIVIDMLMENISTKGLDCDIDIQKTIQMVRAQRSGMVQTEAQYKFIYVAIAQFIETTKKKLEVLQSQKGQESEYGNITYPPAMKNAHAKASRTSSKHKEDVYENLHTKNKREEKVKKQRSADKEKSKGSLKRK
row,effect of a mutation on the interaction,Variant
1,with no effect,D843N

# Variants of: B2
# Conditions: with ptn7_human PTPN7, P35236
row,effect of a mutation on the interaction,Variant
1,increasing interaction,D843N

# Variants of: B3
# Conditions: with ptprr_human PTPRR, Q15256
row,effect of a mutation on the interaction,Variant
1,with no effect,D843N

# Variants of: B4
# Conditions: with ret_human RET
row,effect of a mutation on the interaction,Variant
1,disrupting interaction,Y249F;D554A;C588S
2,disrupting interaction,C588S
3,disrupting interaction,D554A;C588S

# Variants of: B4
# Conditions: with erbb4_human ERBB4, Q15303
row,effect of a mutation on the interaction,Variant
1,with no effect,C588S
2,with no effect,D554A;C588S

# Variants of: B4
# Conditions: with ret_human RET
# Remark: another data set of the same source
row,effect of a mutation on the interaction,Variant
1,with no effect,C588S
2,with no effect,D554A;C588S

# Variants of: B4
# Conditions: with igf1r_human IGF1R
row,effect of a mutation on the interaction,Variant
1,decreasing interaction,C588S
2,decreasing interaction,D554A;C588S

# Variants of: B4
# Conditions: with ron_mouse Mst1r, Q62190
# ron_mouse Mst1r, Q62190, sequence (Q62190 whole entry): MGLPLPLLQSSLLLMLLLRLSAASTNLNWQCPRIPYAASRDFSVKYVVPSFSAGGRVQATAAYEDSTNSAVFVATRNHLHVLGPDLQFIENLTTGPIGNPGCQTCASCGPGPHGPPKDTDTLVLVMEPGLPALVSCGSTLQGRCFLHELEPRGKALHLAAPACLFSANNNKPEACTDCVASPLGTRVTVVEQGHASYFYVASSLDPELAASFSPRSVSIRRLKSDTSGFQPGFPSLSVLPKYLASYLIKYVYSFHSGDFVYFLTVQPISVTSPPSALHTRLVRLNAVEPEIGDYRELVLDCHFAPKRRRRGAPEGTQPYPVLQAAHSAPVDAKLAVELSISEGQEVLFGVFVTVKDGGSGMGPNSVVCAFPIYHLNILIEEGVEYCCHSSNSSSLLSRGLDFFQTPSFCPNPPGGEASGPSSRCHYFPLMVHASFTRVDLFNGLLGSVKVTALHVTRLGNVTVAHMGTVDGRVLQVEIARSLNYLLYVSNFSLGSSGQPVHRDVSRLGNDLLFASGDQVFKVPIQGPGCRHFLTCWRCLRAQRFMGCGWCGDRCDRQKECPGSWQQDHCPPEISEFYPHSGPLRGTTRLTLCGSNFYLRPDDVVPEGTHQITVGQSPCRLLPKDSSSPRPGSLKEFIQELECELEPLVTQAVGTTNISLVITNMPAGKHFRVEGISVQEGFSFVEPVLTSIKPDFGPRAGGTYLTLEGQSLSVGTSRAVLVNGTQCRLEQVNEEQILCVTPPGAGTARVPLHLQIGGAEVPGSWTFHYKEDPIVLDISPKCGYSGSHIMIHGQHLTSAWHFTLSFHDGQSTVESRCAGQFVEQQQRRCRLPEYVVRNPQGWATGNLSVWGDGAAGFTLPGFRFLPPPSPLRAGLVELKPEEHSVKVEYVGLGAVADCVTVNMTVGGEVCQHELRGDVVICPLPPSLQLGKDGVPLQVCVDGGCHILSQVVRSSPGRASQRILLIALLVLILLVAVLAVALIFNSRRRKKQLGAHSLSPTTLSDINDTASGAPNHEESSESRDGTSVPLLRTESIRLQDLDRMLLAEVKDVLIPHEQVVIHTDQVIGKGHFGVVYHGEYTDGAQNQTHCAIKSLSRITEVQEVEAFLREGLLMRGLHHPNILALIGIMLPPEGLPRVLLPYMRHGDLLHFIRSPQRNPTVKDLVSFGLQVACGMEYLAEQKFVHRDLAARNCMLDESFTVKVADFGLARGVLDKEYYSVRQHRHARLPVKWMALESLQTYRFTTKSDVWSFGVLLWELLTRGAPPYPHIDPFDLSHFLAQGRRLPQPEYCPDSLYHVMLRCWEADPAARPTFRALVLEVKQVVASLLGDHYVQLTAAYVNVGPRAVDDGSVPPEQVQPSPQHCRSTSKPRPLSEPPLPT
row,effect of a mutation on the interaction,Variant
1,disrupting interaction,C588S
2,disrupting interaction,D554A;C588S

# Variants of: B4
# Conditions: with ntrk1_human NTRK1, P04629
# ntrk1_human NTRK1, P04629, sequence (P04629 whole entry, looked up): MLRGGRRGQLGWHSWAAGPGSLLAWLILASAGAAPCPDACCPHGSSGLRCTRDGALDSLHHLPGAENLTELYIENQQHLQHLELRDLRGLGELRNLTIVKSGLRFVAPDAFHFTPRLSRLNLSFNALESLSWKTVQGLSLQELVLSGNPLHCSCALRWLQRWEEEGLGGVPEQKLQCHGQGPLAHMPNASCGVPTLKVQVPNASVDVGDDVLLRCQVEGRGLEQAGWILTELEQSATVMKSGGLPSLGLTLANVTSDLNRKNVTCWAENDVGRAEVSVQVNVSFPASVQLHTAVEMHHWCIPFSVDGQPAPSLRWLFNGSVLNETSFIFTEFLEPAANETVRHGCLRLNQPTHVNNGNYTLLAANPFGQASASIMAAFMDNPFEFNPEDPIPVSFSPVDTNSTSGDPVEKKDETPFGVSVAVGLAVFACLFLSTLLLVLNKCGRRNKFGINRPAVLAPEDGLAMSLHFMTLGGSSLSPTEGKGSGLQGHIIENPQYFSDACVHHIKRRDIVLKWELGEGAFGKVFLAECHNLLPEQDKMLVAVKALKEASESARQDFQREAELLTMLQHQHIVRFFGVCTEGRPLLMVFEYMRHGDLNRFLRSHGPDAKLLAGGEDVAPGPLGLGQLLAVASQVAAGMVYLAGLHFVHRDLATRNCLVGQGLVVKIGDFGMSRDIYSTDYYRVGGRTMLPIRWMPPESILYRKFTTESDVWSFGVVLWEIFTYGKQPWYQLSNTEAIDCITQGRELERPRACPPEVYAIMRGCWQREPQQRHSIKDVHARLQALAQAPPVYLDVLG
row,effect of a mutation on the interaction,Variant
1,with no effect,C588S
2,with no effect,D554A;C588S

# Variants of: B4
# Conditions: with tie2_human TEK
row,effect of a mutation on the interaction,Variant
1,decreasing interaction,C588S
2,decreasing interaction,D554A;C588S

# Variants of: B4
# Conditions: with ron_mouse Mst1r
row,effect of a mutation on the interaction,Variant
1,increasing interaction,C588S
2,increasing interaction,D554A;C588S

# Variants of: B4
# Conditions: with fgfr2_human FGFR2, P21802
# fgfr2_human FGFR2, P21802, sequence (P21802 whole entry, looked up): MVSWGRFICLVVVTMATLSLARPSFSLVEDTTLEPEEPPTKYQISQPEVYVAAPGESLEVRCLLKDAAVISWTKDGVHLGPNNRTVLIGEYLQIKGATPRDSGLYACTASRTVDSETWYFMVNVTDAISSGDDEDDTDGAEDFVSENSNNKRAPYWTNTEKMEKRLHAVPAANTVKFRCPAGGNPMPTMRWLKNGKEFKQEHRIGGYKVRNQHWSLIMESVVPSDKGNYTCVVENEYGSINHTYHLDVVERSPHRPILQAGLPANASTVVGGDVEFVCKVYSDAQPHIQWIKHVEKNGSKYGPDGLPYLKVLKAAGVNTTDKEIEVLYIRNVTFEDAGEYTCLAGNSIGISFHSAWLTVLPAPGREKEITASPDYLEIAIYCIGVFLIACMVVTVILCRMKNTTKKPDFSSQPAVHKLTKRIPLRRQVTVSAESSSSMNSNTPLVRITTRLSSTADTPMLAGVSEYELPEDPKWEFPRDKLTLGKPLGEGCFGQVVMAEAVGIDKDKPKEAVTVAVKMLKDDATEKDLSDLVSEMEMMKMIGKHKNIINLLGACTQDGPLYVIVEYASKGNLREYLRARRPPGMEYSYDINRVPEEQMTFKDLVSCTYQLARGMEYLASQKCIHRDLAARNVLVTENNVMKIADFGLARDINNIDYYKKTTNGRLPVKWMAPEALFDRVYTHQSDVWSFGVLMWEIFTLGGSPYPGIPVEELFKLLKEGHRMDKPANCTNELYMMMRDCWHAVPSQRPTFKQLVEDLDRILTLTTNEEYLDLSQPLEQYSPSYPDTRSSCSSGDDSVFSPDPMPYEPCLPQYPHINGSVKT
row,effect of a mutation on the interaction,Variant
1,disrupting interaction,C588S
2,decreasing interaction,D554A;C588S

# Variants of: B4
# Conditions: with fgfr4_human FGFR4, P22455
# fgfr4_human FGFR4, P22455, sequence (P22455 whole entry, looked up): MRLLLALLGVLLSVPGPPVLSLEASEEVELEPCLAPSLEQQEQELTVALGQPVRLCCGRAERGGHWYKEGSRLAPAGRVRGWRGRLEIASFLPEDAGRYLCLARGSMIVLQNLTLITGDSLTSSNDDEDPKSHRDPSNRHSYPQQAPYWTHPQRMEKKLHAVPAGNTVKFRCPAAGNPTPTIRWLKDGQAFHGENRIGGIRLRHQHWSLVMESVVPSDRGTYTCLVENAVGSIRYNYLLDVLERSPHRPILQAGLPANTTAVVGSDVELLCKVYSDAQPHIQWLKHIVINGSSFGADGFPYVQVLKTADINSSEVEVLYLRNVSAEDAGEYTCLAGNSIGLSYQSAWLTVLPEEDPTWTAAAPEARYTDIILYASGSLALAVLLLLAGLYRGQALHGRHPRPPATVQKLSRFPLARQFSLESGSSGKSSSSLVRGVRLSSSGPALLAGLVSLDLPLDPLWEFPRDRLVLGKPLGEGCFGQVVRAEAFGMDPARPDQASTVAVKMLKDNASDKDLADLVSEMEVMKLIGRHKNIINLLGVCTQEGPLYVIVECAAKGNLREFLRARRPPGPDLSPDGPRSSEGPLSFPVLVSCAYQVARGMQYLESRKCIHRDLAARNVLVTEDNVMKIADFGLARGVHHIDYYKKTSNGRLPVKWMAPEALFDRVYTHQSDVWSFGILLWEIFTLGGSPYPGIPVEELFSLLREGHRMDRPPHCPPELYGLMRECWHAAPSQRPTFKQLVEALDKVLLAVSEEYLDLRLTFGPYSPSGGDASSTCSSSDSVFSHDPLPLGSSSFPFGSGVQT
row,effect of a mutation on the interaction,Variant
1,decreasing interaction,C588S
2,decreasing interaction,D554A;C588S

# Variants of: B4
# Conditions: with vgfr2_human KDR
row,effect of a mutation on the interaction,Variant
1,with no effect,C588S
2,with no effect,D554A;C588S

# Variants of: B4
# Conditions: with igf1r_human IGF1R
# Remark: another data set of the same source
row,effect of a mutation on the interaction,Variant
1,with no effect,C588S
2,with no effect,D554A;C588S
